Usually pKd stands for the negative decadic logarithm of the Kd, by convention in mol/L. A low value points to a large Kd.

pKd: −log10 of the molar value.

In the assay the target is labelled Vip3Aa protoxin (MST) (Bacillus thuringiensis (strain Bt9816C)). The assay can be described thus: MST; 10 nM labelled Vip3Aa kept constant, Sf-SR-C protein fragments titrated 0.3 nM to 10 μM, 20 min at RT; 25 mM Hepes pH 7.5, 150 mM NaCl, 0.05% Tween-20; 25 °C; fitted to the Hill equation; three independent experiments.
Substance “GST-SR-F-2 (Sf-SR-C aa 139-320, the MAM domain) (domain or fragment)” showed a pKd of 6.33.

Turning to “Sf-CCP (CCP domain of Sf-SR-C (aa 20-80) with a His-tag) (domain or fragment)”, the pKd was 5.66.

For the substance “extracellular sequence of Sf-SR-C (aa 20-558) with a glutathione-S-transferase tag (GST-SR-C-N) (domain or fragment)”, the pKd is 6.72.

(Values after PMC6191154.)
